This is an account of results in US20020054882A1 (TAKARA SHUZO, published 2002).

Common to all, as to experiment: cell-based or functional assay
Test [1] concerns the target HA molecule of A1/FM/1/47 (H1N1) (influenza A virus A1/FM/1/47 (H1N1)).
The target in test [2] is HA molecule of A2/Aichi/2/68 (H3N2) (influenza A virus A2/Aichi/2/68 (H3N2)).
The target in test [3] is HA molecule of A/Adachi/2/57 (H2N2) (influenza A virus A/Adachi/2/57 (H2N2)).
Test [4] deals with HA molecule of A/Izumi/5/65 (H2N2) (influenza A virus A/Izumi/5/65 (H2N2)).
The target of test [5] is HA molecule of A/Fukuoka/C29/85 (H3N2) (influenza A virus A/Fukuoka/C29/85 (H3N2)).
Test [6] addresses HA molecule of A/Kitakyushu/159/93 (H3N2) (influenza A virus A/Kitakyushu/159/93 (H3N2)).
Test [7] addresses HA molecule of A/Kaizuka/2/65 (H2N2) (influenza A virus A/Kaizuka/2/65 (H2N2)).
For test [8], the target named is HA molecule of A/Osaka/930/88 (H1N1) (influenza A virus A/Osaka/930/88 (H1N1)).
The target of test [9] is HA molecule of A/Yamagata/120/86 (H1N1) (influenza A virus A/Yamagata/120/86 (H1N1)).
Test [10] has as its target HA molecule of A/Sichuan/2/87 (H3N2) (influenza A virus A/Sichuan/2/87 (H3N2)).
In test [11] the target is HA molecule of A/Suita/1/90 (H3N2) (influenza A virus A/Suita/1/90 (H3N2)).
In test [12] the target is HA molecule of A/Bangkok/10/83 (H1N1) (influenza A virus A/Bangkok/10/83 (H1N1)).
Test [13] addresses HA molecule of A/Ibaraki/1/90 (H3N2) (influenza A virus A/Ibaraki/1/90 (H3N2)).
The target in test [14] is HA molecule of A/Kumamoto/1/65 (H2N2) (influenza A virus A/Kumamoto/1/65 (H2N2)).
Test [15] concerns the target HA molecule of influenza B virus strain B/Nagasaki/1/87 (influenza B virus B/Nagasaki/1/87).
The target of test [16] is HA molecule of A/PR/8/34 (H1N1) (influenza A virus A/PR/8/34 (H1N1), UniProt P03452 18-565).
Chain of HA molecule of A/PR/8/34 (H1N1) (P03452 18-565): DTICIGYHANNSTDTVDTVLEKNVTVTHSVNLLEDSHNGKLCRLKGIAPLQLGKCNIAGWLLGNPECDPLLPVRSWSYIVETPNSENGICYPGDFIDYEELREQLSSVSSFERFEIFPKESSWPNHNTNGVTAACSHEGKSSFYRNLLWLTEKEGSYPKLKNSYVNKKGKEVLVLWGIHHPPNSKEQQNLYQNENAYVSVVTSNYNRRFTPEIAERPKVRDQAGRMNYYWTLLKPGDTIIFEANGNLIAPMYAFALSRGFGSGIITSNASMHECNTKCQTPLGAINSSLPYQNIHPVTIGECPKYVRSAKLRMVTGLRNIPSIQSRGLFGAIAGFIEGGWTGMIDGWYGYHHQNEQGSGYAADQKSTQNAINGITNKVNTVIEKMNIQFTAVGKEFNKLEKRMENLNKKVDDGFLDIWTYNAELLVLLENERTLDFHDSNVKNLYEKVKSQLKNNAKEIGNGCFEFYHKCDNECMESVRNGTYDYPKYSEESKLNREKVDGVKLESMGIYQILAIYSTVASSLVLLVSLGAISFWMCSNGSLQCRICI

On to monoclonal antibody C179, for which the HI (hemagglutination inhibition test) (dilution ratio of ascites fluid) in [1], in test [2], in test [3], in test [4], in test [5] and in test [6] was under 32 each time. Further, the HI (hemagglutination inhibition test) (dilution ratio of ascites fluid) in test [7], in [8], in test [9], in test [10], in test [11] and in [12] was under 32 each time. The HI (hemagglutination inhibition test) (dilution ratio of ascites fluid) in test [13], in test [14] and in test [15] was under 32 in each case.

B1: monoclonal antibody C179 (antibody)
chain 1: EVKLVESGGGLVQPGGSLRLSCGTSGFTLTDDYMTWVRQPPGKALEWLGFIRDRANGYTTEYSASVKGRFTISRDNSQSIVYLQMNTLRVEDSATYYCARPKGYFPYAMDYWGQGT
chain 2: DIQMTQSPASQSASLGESVTITCLASQTIGTWLAWYQQKPGKSPQLLIYAATSLADGVPSRFSGSGSGTKFSFKISSLQAEDFVSYYCQQLYSTPW
On to B1, for which the “HI (hemagglutination inhibition test)” value in test [16] was < 32 dilution ratio of ascites fluid.
